Experiment: yeast display, Sf9 membrane polyspecificity reagent, FACS + sequencing; frameworks hold sequencing errors
Method in brief: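 Genes from sorted yeast were amplified by colony PCR, read by MiSeq 2 × 250 sequencing and filtered on CDR length. These cells carried a synthetic nanobody library in Saccharomyces cerevisiae BJ5465 and were sorted by FACS into low and high (top ~1%) gates on anti-HA and streptavidin fluorescence. Polyreactivity is labelled according to the gate of origin.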

Row | Sequence | polyreactivity (PSR sort gate)
1 | QVQHVESGGCLVQAGGSLRLSCAASGITFEWYAMGWYRQAPGKESELVADITSGDSTNYADSVKGRFTISRDNAQNTVYLQMNSLKPEDTAVYYWAATFIGQFFSWYYYWGQGTQVTVSS | low polyreactivity
2 | QVQHVESGGDLVQAGGSLRLSCAASGSTSFHNAMGWDIQAPGKEREFVAAMSGSGDRTNYADSVKGRFTISRDNAKNTVYLQMNSLKPEDTAVYYCAARGQPGRRTSSGFFSGGYWGQGTQVTVSS | high polyreactivity
3 | QVQHVESGGGLDQAGGSLRFSCAASGTIFVYNAMGSYREAPGKERELVAAMDTVGSTNYADSVKGRFTISRDNAKNTVYLQMNSLKPEDTAVYYCAVVTPYWSFFEQVIPSNYWGQGSQVTVSS | low polyreactivity
4 | QVQHVESGGGLDQAGGSLRLSCAASGFIFGWYAMGWYRPAPGKERELVAAITWSGVRTYYADSVKGRFTISRDNAKNTVYLQMHSLKPEDTAVYYCARAGGSVGRGYKDQDGRGDYWGQGTEVTVSS | low polyreactivity
5 | QVQHVESGGGLDQAGGSLRLSCAASGFIFYDYMGWDRQAPGKQRELVAVISYSGSSTNYAYSVKGRFTITRDNAKMTVYLQINSLKPEDTAVYYWAARIVNGWDYDFWGQGSQVTVSS | low polyreactivity
6 | QVQHVESGGGLFQAGGSLRLSCAASGITFEYYAMGWYRQAPGKERELVAAISGDGSTYYADSVKGRFTISRDNAKNTVYLQMNSLKPEDTAVYYCAAVYYRGFLYYRYYYWGQGTQVTVSS | high polyreactivity
7 | QVQHVESGGGLLQAGGSLRLSCAASGRTFGRYAMGWYRPAPGKERELVADIDYGGGSTYYADSVKGRFTISRDNAKNTFYLQMNSLKPEDTAVYYCNAGRDIGWGYHMDYWGQGTQVTVSS | high polyreactivity
8 | QVQHVESGGGLVHAGCRLRLSCAASGRTFIKYAMGWYRQAPGTERELVAGISGGGASTYYADSVKGRFTISRDNAKNTVYLQMNSLKPEETAVYYFAKLSPRGRRYDYWGQGTQVTVSS | high polyreactivity
9 | QVQHVESGGGLVHAGGSLRLSCAASGTTFYFNPMGWSRQAPGKERELVASITWRGVSTYYADSVKGRFTISRDNAKNTVYLHMNSLNPEDTAVYYCAVAAGIPQRRFYYWGQGTQVTVSS | high polyreactivity
10 | QVQHVESGGGLVKAGGSLRLSCAATGSIFSPYAMGWYILAPGKERELVAAISRSGRTHYADSVKGRFTISRDNAKHTVYLQMNSLKADDTAVYFCAAGVVYGYYYWGQGTQVTVSS | high polyreactivity
11 | QVQHVESGGGLVQAGASLRLSCAASGFIFPSYVKGWYRQAPWKERDLVATISRSGGSTYYADSVKGRFTISRDNAKNTVYLQMNSLKPEDTAVYYCAAYPYSYLQLMDYWGQGTQVTVSS | high polyreactivity
12 | QVQHVESGGGLVQAGCSLRLSCAASGFTFYSYAMGWYSQTPGKERELVASISRTGGGTYYADSVKGSFTISRDNAKNTVSLQMNSLIPVDTAVYYCNASPNIRVRYYYRKYDYWGQGTQVTVSS | high polyreactivity
13 | QVQHVESGGGLVQAGCSLRLSCAASGRTFSSNAMGWYRQAHGKVRELVAVISSGGSTYYADSVKGRFTISRDNAKNTVYLEMYSMKPEDTAVYICAAAVGPSGYYYESDYWGQGTQETVSS | high polyreactivity
14 | QVQHVESGGGLVQAGGRLRLRCAASGSTFDDNAKGWYIHAPGKERELVAGISDGDDSTNYADSVKGRFTISRDNAKNTVYFQMNRLKPEDTAVYYCNARYVRTYGVRFGYDYWGQGTQLTVSS | low polyreactivity
15 | QVQHVESGGGLVQAGGRLRLSCAASGGIYYYAMGWYRQAPGKERELVAAISSGGGNTNYADSVKGRFTISRDNAKNTVYLQMNSLKPEDTAVYYCATDGFIPTYSYTEIGYDYWGQGTQVTVSS | low polyreactivity
16 | QVQHVESGGGLVQAGGRLRLSCAASGSTFQLYAMGWYRQAPGKERELVASISWSGGSTYYADSVTGRFTISRDNAKNTVYLQMNSLKPEDTAVYYCNADFWWRYRPGAVFRSYGYWGQGTQVTVSS | low polyreactivity

Row | Sequence | polyreactivity (PSR sort gate)
17 | QVQHVESGGGLVQAGGRLRLSCPATGSTFTWYALASYRQAPGKERELVAAISRGGSTNYADSVKGRFTISRDNAKNSVYLQMNSLIPEDTAVYYCAAESYWRDVYWGQGTQVTVSS | low polyreactivity
18 | QVQHVESGGGLVQAGGSLPLSGAASGLTFTRYAMGWYRQAPGKESELVAAISKNGGSTYYADSVTGRFTISRDNAKYTVYLQMNSLKPEDTAVYYCAARRSTSYPAGYDYWVQGTQVTVSS | high polyreactivity
19 | QVQHVESGGGLVQAGGSLRLCCAATGNTFGINAMGWYRQAPGKERELDASITGSAGSTYYADSVKGRFTISRDNAKNTVYLQMNSLKPEDTAVYYCNAGARGVMSQPWVIKYYYWGQGTQGTVSS | high polyreactivity
20 | QVQHVESGGGLVQAGGSLRLRCAASARTFLANAMGWYRQAPGKERELLAAITYSGGRTYYADSVKGRFTISRDNAKNTVYLQMNSLKPEDTAVYYCAAEGKVTSQYTMDYWGLGTQVTVSS | high polyreactivity
21 | QVQHVESGGGLVQAGGSLRLRCAASGSTFQYNPMGWYRQAPGKERELVASITRGGNTNYADSVKGRFTISRDNAKNTVYLQMNSLKPEDTAVYYCAARSTYRVSHVDYWGQGTQVTVSS | low polyreactivity
22 | QVQHVESGGGLVQAGGSLRLSCAASALTFSSNAMGWYRQAPGKERELVAVITNGGSTNYADSVKGRLTISRDNAKNTVYLQMNSLKPEDTAVYYCAIDGGPAQDIGMDYWGQGTHVTVSS | low polyreactivity
23 | QVQHVESGGGLVQAGGSLRLSCAASGDIFRPNAMGWYRQAPGKERELVAAITRSGGTTYYADSVKGRFTISRDYAKNTVYLQMNSLNPEDTAVYYCAARGLQYYRYDYWGQGTQVTVSS | low polyreactivity
24 | QVQHVESGGGLVQAGGSLRLSCAASGFIFARNAMGWYRQAPGKERELVAAITWSGGSTYADSVKGRFTISRDNAKNTVYLQMNSLKPEDTAVYYCAADSYPAYLGFVGFDYWGQGTQVTVSS | low polyreactivity
25 | QVQHVESGGGLVQAGGSLRLSCAASGFIFPTYAMGWYRQAPGKERELVATITTNAGGTHYADSVKGRFTISRDNAKNTVYLQMNSLKPEDTAVYYCAAKQYRPKQRKYWTRIYDYWGQGTQVTVSS | low polyreactivity
26 | QVQHVESGGGLVQAGGSLRLSCAASGFIFRRYAMGWYRQAPGKERELVAAISWRSGSTYYADSVKGRFTISRDNAKNTVYLQMNSLKPEDTAVYYCAAKDQATYQLNYWGQGTQVTVSS | high polyreactivity
27 | QVQHVESGGGLVQAGGSLRLSCAASGFIFRRYPLGWYRQAPGKERELVASISSGGNTDYADSVKGRFTISRDNAKNTVYLQMKSLNPEDTAVYYCNARVRWYPGYDYWGQGTQVTVSS | high polyreactivity
28 | QVQHVESGGGLVQAGGSLRLSCAASGFIFWYYTMGWYRQAPGKVRELLATISGGGSTYYADSVKGRFTISRDNAKNTVYLQMNSLKPEDTAVYYCNAVIRTRRVGYGDGVDYWGQGTQVTVSS | high polyreactivity
29 | QVQHVESGGGLVQAGGSLRLSCAASGFTFAYYAKGWYRQAPGKERELVARISSGGSTYYADSVKGRFTISRDNAKNTVYLQMNSLKPEDTAVYYCAARSYYISPWRFDYWGQGTQVTVSS | high polyreactivity
30 | QVQHVESGGGLVQAGGSLRLSCAASGFTFSYNAMGWNRQAPGKERELVAAISATGDGNTYYADSVKGRFTISRDNAKNTVYLQMNSLNPEDTAVYFCNRLPQYALPYRHNGYWGQGTQVTVSS | low polyreactivity
31 | QVQHVESGGGLVQAGGSLRLSCAASGFTFWYYDMGWSRQAPGKERELVAAITNGGRTYYADSVKGRFTISRDNAKNTVYLQMNSLKPEDTAVYYCAAGRWRSGRAEDYWGQGTQVTVSS | high polyreactivity

— the nanobody polyreactivity screen of Harvey et al. (2022)
